{"source": "patent US20220403001A1", "about": "“PDE5 DERIVED REGULATORY CONSTRUCTS AND METHODS OF USE IN IMMUNOTHERAPY” (Obsidian Therapeutics, Inc., priority 2018, published 2022)", "key": {"hPDE5 mutants [1]": {"biological_target": "T1, hPDE5 mutants (Homo sapiens, UniProt O76074)", "assay": "GFP FACS analysis of hPDE5 mutant library clones in NIH3T3 cell pools", "details": "experiment 1; for Stabilization ratio: GFP intensity 10 μM vardenafil vs DMSO; for Destabilizing mutation co-efficient: GFP intensity mutant vs PDE5 wildtype construct in absence of ligand; for MFI 10 μM VDF / MFI DMSO: GFP, NIH3T3 cell pools; for MFI 10 μM VDF: 10 μM vardenafil 24 hr; for MFI DMSO: no ligand (DMSO)", "description": "These constructs were packaged into lentivirus, transduced into NIH3T3 cells and select stable cell pools were derived as described below. […] Lentiviral stocks were used for transduction of NIH3T3 cells and subsequent cell pool selection. The day before transduction, NIH3T3 cells (1.8×10^6) were seeded in a T-25 flask and allowed to reach 60-70% confluency (˜1 day). The growth medium in the T-25 flask was then replaced with 1 mL virus (quickly thawed in a 37° C. water bath) and 5 μg/mL polybrene. […] Transduction medium was removed the following day and replaced with 5 mL fresh medium. At 48 hr after transduction, the medium was replaced with media containing 1 μg/mL puromycin. This puromycin medium was replaced every 3-4 days until cell pools were established (˜2 weeks).\nThe mean fluorescence intensity (MFI) of GFP at 100 μM concentration treatment was set as 100% hPDE5 stabilization effect (HPE), while DMSO treatment was set as 0% effect (ZPE) of hPDE5 stabilization. The effect of the compound on hPDE5 stabilization was calculated based on the following formula: % PDE5 stabilization effect=(MFI-ZPE)/(HPE-ZPE)×100.\nPlots of the % effect versus concentration were generated with Graphpad Prism 5 and EC50 values were calculated using a four-parameter nonlinear regression model.\nSelect PDE5 clones from both experiment 1 and experiment 2 were directly compared. […] The stabilization ratio was calculated as the fold change in GFP intensity in ligand treated samples compared to treatment with DMSO (i.e. in the absence of ligand) with the same construct."}, "hPDE5 mutants [2]": {"biological_target": "T1, hPDE5 mutants", "assay": "GFP MFI by FACS in HCT116 cells transduced with hPDE5 constructs", "type": "cell-based", "method": "(§1) Desirable qualities of a DD include, low expression of the SRE in the absence of ligand and ligand dependent stabilization of the SRE. Constructs were generated using DDs linked to GFP using an SG linker. […] The mean fluorescence intensity (MFI) of GFP was analyzed by FACS. […] Destabilizing mutation coefficient less than 1 are desirable.\n(§2) Mean fluorescence intensity (MFI) was measured by FACS. […] Destabilizing mutation coefficient ratios less than 1 are desirable.\n(§3) Mean fluorescence intensity (MFI) was measured by FACS. […] Destabilizing mutation co-efficient ratios less than 1 are desirable.\n(§4) Mean fluorescence intensity (MFI) was measured by FACS. […] Destabilizing mutation coefficient less than 1 are desirable.\nas §4\n(§5) Mean fluorescence intensity (MFI) of GFP was measured by FACS.\n(§6) Mean fluorescence intensity (MFI) was measured by FACS.\n(§7) The media containing the ligand was removed and fresh media without the ligand was added.\n(§8) The properties of the DDs were analyzed in the presence and absence of ligands via FACS as previously described.\n(§9) GFP fluorescence was measured by FACS.\n(§10) The properties of the DDs were analyzed via FACS both in the presence and absence of ligands.\nas §9"}, "hPDE5 mutants [3]": {"tested_on": "hPDE5 mutants", "assay": "GFP MFI by FACS in HCT116 cells transduced with hPDE5 constructs", "type": "cell-based, human", "method": "as §1, §2, §3, §4, §4, §5, §6, §7, §8, §9, §10, §9"}, "[4]": {"details": "Off-kinetics, time 50 hrs (ligand removed at 48 h)"}, "[5]": {"details": "Off-kinetics, time 52 hrs (ligand removed at 48 h)"}, "[6]": {"details": "Off-kinetics, time 54 hrs (ligand removed at 48 h)"}, "[7]": {"details": "Off-kinetics, time 56 hrs (ligand removed at 48 h)"}, "[8]": {"details": "Off-kinetics, time 60 hrs (ligand removed at 48 h)"}, "[9]": {"details": "Off-kinetics, time 72 hrs (ligand removed at 48 h)"}, "[10]": {"details": "Off-kinetics, time 80 hrs (ligand removed at 48 h)"}, "[11]": {"details": "Off-kinetics, time 96 hrs (ligand removed at 48 h)"}}, "data": [{"substance": "LibC000016: hPDE5 (Amino acid 535-860 of WT, Q743L), DD generated by random mutagenesis", "values": [{"measurement": "Stabilization ratio", "setting": "hPDE5 mutants [1]", "result": 2.4}, {"measurement": "Destabilizing mutation co-efficient", "setting": "hPDE5 mutants [1]", "result": 0.51}, {"measurement": "MFI 10 μM VDF", "setting": "hPDE5 mutants [1]", "result": 6869}, {"measurement": "MFI DMSO", "setting": "hPDE5 mutants [1]", "result": 2895}]}, {"substance": "LibC000017: hPDE5 (Amino acid 535-860 of WT, Y709H, F787V), DD generated by random mutagenesis", "values": [{"measurement": "Stabilization ratio", "setting": "hPDE5 mutants [1]", "result": 2.9}, {"measurement": "Destabilizing mutation co-efficient", "setting": "hPDE5 mutants [1]", "result": 0.39}, {"measurement": "MFI 10 μM VDF", "setting": "hPDE5 mutants [1]", "result": 6530}, {"measurement": "MFI DMSO", "setting": "hPDE5 mutants [1]", "result": 2244}]}, {"substance": "LibC000018: hPDE5 (Amino acid 535-860 of WT, N605Y, I715K), DD generated by random mutagenesis", "values": [{"measurement": "Stabilization ratio", "setting": "hPDE5 mutants [1]", "result": 3.0}, {"measurement": "Destabilizing mutation co-efficient", "setting": "hPDE5 mutants [1]", "result": 0.18}, {"measurement": "MFI 10 μM VDF", "setting": "hPDE5 mutants [1]", "result": 3102}, {"measurement": "MFI DMSO", "setting": "hPDE5 mutants [1]", "result": 1038}]}, {"substance": "LibC000019: hPDE5 (Amino acid 535-860 of WT, F564I, N662Y, H685L, L693P, F736I), DD generated by random mutagenesis", "values": [{"measurement": "Stabilization ratio", "setting": "hPDE5 mutants [1]", "result": 0.9}, {"measurement": "Destabilizing mutation co-efficient", "setting": "hPDE5 mutants [1]", "result": 0.06}, {"measurement": "MFI 10 μM VDF", "setting": "hPDE5 mutants [1]", "result": 285}, {"measurement": "MFI DMSO", "setting": "hPDE5 mutants [1]", "result": 320}]}, {"substance": "LibC000021: hPDE5 (Amino acid 535-860 of WT, V594I), DD generated by random mutagenesis", "values": [{"measurement": "Stabilization ratio", "setting": "hPDE5 mutants [1]", "result": 2.6}, {"measurement": "Destabilizing mutation co-efficient", "setting": "hPDE5 mutants [1]", "result": 0.30}, {"measurement": "MFI 10 μM VDF", "setting": "hPDE5 mutants [1]", "result": 4440}, {"measurement": "MFI DMSO", "setting": "hPDE5 mutants [1]", "result": 1732}]}, {"substance": "LibC000023: hPDE5 (Amino acid 535-860 of WT, E858V), DD generated by random mutagenesis", "values": [{"measurement": "Stabilization ratio", "setting": "hPDE5 mutants [1]", "result": 1.4}, {"measurement": "Destabilizing mutation co-efficient", "setting": "hPDE5 mutants [1]", "result": 0.77}, {"measurement": "MFI 10 μM VDF", "setting": "hPDE5 mutants [1]", "result": 6121}, {"measurement": "MFI DMSO", "setting": "hPDE5 mutants [1]", "result": 4386}]}, {"substance": "LibC000024: hPDE5 (Amino acid 535-860 of WT, T784I), DD generated by random mutagenesis", "values": [{"measurement": "Stabilization ratio", "setting": "hPDE5 mutants [1]", "result": 1.4}, {"measurement": "Destabilizing mutation co-efficient", "setting": "hPDE5 mutants [1]", "result": 0.88}, {"measurement": "MFI 10 μM VDF", "setting": "hPDE5 mutants [1]", "result": 6905}, {"measurement": "MFI DMSO", "setting": "hPDE5 mutants [1]", "result": 5039}]}, {"substance": "OT-001186: hPDE5 R732G AcGFP construct", "values": [{"measurement": "GFP by FACS, Sildenafil 10 μM", "setting": "hPDE5 mutants [2]; hotspot constructs, HCT116", "result": 288}, {"measurement": "GFP by FACS, Vardenafil 1 μM", "setting": "hPDE5 mutants [2]; hotspot constructs, HCT116", "result": 854}, {"measurement": "GFP by FACS, Sildenafil 0 μM (DMSO)", "setting": "hPDE5 mutants [3]; hotspot constructs, HCT116, DMSO control of Sildenafil", "result": 298}, {"measurement": "GFP by FACS, Vardenafil 0 μM (DMSO)", "setting": "hPDE5 mutants [3]; hotspot constructs, HCT116, DMSO control of Vardenafil", "result": 176}]}, {"substance": "OT-001216: hPDE5 wildtype construct linked to GFP", "values": [{"measurement": "Sildenafil Stabilization ratio", "setting": "hPDE5 mutants [2]; 10 μM, 48 h, HCT-116", "result": 1.03}, {"measurement": "Vardenafil Stabilization ratio", "setting": "hPDE5 mutants [2]; 10 μM, 48 h, HCT-116", "result": 1.04}, {"measurement": "MFI Sildenafil", "setting": "hPDE5 mutants [2]; GFP, 10 μM Sildenafil 48 h, HCT-116", "result": 66860}, {"measurement": "MFI Vardenafil", "setting": "hPDE5 mutants [2]; GFP, 10 μM Vardenafil 48 h, HCT-116", "result": 67388}, {"measurement": "MFI DMSO", "setting": "hPDE5 mutants [3]; GFP, DMSO 48 h, HCT-116", "result": 64942}, {"measurement": "Stabilization ratio", "setting": "hPDE5 mutants [3]; Off-kinetics, time 48 hrs (after 48 h ligand treatment)", "result": 2.24}, {"measurement": "MFI", "setting": "hPDE5 mutants [3]; Off-kinetics, time 48 hrs (after 48 h ligand treatment), HCT 116", "result": 102137}, {"measurement": "MFI", "setting": "hPDE5 mutants [3]; [4]", "result": 97225}, {"measurement": "Stabilization ratio", "setting": "hPDE5 mutants [3]; [4]", "result": 2.14}, {"measurement": "MFI", "setting": "hPDE5 mutants [3]; [5]", "result": 96264}, {"measurement": "Stabilization ratio", "setting": "hPDE5 mutants [3]; [5]", "result": 2.12}, {"measurement": "MFI", "setting": "hPDE5 mutants [3]; [6]", "result": 95410}, {"measurement": "Stabilization ratio", "setting": "hPDE5 mutants [3]; [6]", "result": 2.10}, {"measurement": "MFI", "setting": "hPDE5 mutants [3]; [7]", "result": 81733}, {"measurement": "Stabilization ratio", "setting": "hPDE5 mutants [3]; [7]", "result": 1.80}, {"measurement": "MFI", "setting": "hPDE5 mutants [3]; [8]", "result": 84323}, {"measurement": "Stabilization ratio", "setting": "hPDE5 mutants [3]; [8]", "result": 1.85}, {"measurement": "MFI", "setting": "hPDE5 mutants [3]; [9]", "result": 70151}, {"measurement": "Stabilization ratio", "setting": "hPDE5 mutants [3]; [9]", "result": 1.54}, {"measurement": "MFI", "setting": "hPDE5 mutants [3]; [10]", "result": 63208}, {"measurement": "Stabilization ratio", "setting": "hPDE5 mutants [3]; [10]", "result": 1.39}, {"measurement": "MFI", "setting": "hPDE5 mutants [3]; [11]", "result": 55918}, {"measurement": "Stabilization ratio", "setting": "hPDE5 mutants [3]; [11]", "result": 1.23}, {"measurement": "MFI", "setting": "hPDE5 mutants [3]; Sildenafil 30 μM, 24 h, HCT116", "result": 75478}, {"measurement": "Stabilization ratio", "setting": "hPDE5 mutants [3]; Sildenafil 30 μM, 24 h, HCT116", "result": 1.22}, {"measurement": "MFI", "setting": "hPDE5 mutants [3]; Tadalafil 100 μM, 24 h, HCT116", "result": 58468}, {"measurement": "Stabilization ratio", "setting": "hPDE5 mutants [3]; Tadalafil 100 μM, 24 h, HCT116", "result": 1.60}, {"measurement": "MFI", "setting": "hPDE5 mutants [3]; Vardenafil 30 μM, 24 h, HCT116", "result": 70898}, {"measurement": "Stabilization ratio", "setting": "hPDE5 mutants [3]; Vardenafil 30 μM, 24 h, HCT116", "result": 1.14}]}]}
